Reference: paper PMC3469540

Tested on: PSC (Posterior Sex Combs) (Drosophila)
Assay: centrifugation (array oligomerization)
Conditions: 50% of template pelleted; saturates at 2 PSC per nucleosome; not an affinity; Buffer, salt, pH and temperature of the nucleic acid binding assays not given in the material; EMSA on 0.8% agarose, 0.5X TBE after glutaraldehyde …

12-nucleosome array
K half (PSC per nucleosome): 0.25
